Results as given in publication PMC9599074, “Integration of Power-Free and Self-Contained Microfluidic Chip with Fiber Optic Particle Plasmon Resonance Aptasensor for Rapid Detection of SARS-CoV-2 Nucleocapsid Protein”.

B1: NP-A48 (ssDNA)
DNA: GCTGGATGTCGCTTACGACAATATTCCTTAGGGGCACCGCTACATTGACACATCCAGC
modifications: terminal amine (end not stated), coupled to carboxyl AuNP
B2: NP-A61 (ssDNA)
DNA: GCTGGATGTTGACCTTTACAGATCGGATTCTGTGGGGCGTTAAACTGACACATCCAGC
modifications: terminal amine (end not stated), coupled to carboxyl AuNP

Target: SARS-CoV-2 nucleocapsid protein (N-protein) (SARS-CoV-2, UniProt P0DTC9 1-419)
Assay: FOPPR biosensor kinetics; 1x PBS pH 7.4, […]; temperature not stated
Conditions: protein: commercial; chain copies: 2

Binder	Kd [nM]
B1	2.63
B2	5.02
